{"source": "the DeepSol protein solubility set", "experiment": "soluble on expression in E. coli; label from the status in PepcDB or PDB records"}
{"sequence": "MSLQQPLAYRMRPRTIDEVVGQQHLVGEGKIIRRMVDARMLSSMILYGPPGTGKTSIASAIAGSTNYAFRMLNAATDSKKDLQVVAEEAKMSGTVILLLDEVHRLDKTKQDFLLPHLESGRIILIGATTENPYITINPAIRSRTQIFEVKPLTEQDIQLAVEHALRDKERGLGQQAIQLDEDALLHLSRATNGDLRSALNGLELATLSTPSDKEGRIHLTLSIIEECVQRKALTHDKNGDAHYDVISAFQKSIRGSDVDAALHYLARLVEAGDLASICRRLMVIGYEDIGLGNPAAAARTVNAVLAAEKLGLPEARIPLADVVVDLCLSPKSNSAYMALDAALADIREGKAGDVPDHLRDSHYKGAKSLNRGVGYQYPHHFDQAWVNQQYLPDKLKNAQYYQPKDTGKYEQALGQQYYRIKEWKEGHHHHHH", "values": [{"measurement": "soluble on expression in E. coli", "value": "soluble"}]}
{"sequence": "MGSDKIHHHHHHVTNKRPIAFDATPDTLRRSLVLSAAAASGLGLLPGAMRDARAQSFPPLGNFPAGTEGNSVFVGVSVPLTGAFSAEGKDQQLGFELAFEHLNSGKLAGKIPELKGKGVLGKTITFGVVDTEAKAESAIQGQTRFLRNNKAILMTGCYSSAVTVALGKLAQREKVLYMAGPAGSDDVTGKDCQRYSFRSQPSTTMASRALAPVLAERLGKGKKVAYLVPDYTFGHTQFESMARLTEPMGWKTVSKQVCPIGTADFSTYLLNIANSGADVFVNCTVGNDCSVSIKQAKNFGVMKNAALVVPTLQPFLAQQLGPEVTQDILGVMDFWWSLAESNELAKQFVDDFQAKHNYKPYWPAHIAYSQMLIWAVAVERAKTFYPPEVIKALEARVPIRTTLGDVMYRPEDHQLVRPVPVMRGKKPSEMKSKDDYYEVIKMIPGADAVTPLDQGTCKMGELT", "values": [{"measurement": "soluble on expression in E. coli", "value": "not soluble"}]}
{"sequence": "EEPTIGDIYNGKVTSIMQFGCFVQLEGLRKRWEGLVHISELRREGRVANVADVVSKGQRVKVKVLSFTGTKTSLSMKDVDQETGEDLNPNRRRNLV", "values": [{"measurement": "soluble on expression in E. coli", "value": "soluble"}]}
{"sequence": "MAHHHHHHMPPLRGAGRGRNKTGTVPTARTNGGFKAKGSVKPRTFDEYYGEIYGARWHTLRTAMMEAPRKVALWNRFSQVPFEEATRGLSRVEPNSLIQAFQPTQTANSTEAVSTADRGINDDDEAKLQGKALAAAADDLLHRNGVIDKPPIDAFGIKAYYLLDYASAHVVEQLQVGAFDTVLDMCAAPGGKSIAVAQFLSPDGALTCNEARADRCARLRRNLQEHVPVNYVPWRTTQRDAQTWYDPGAFSRVLVDAPCSSERHLLQQSGGSPLSLREWSEETTVQLAALQRMLLQRAIETCRVGGRIVYSTCSISPLENDGVVGEVLQRTRCEVKVIKTSPAAAAAAPVALPKTATDAGESDASGAEACAPHTPTVLGEATAYGRLLLPDTCHGWGPMFLCVLEKTAEHKDVSSSSEDDDE", "values": [{"measurement": "soluble on expression in E. coli", "value": "not soluble"}]}
{"sequence": "MDGYTGSHVVRCALRLAPLVFVRPGELRKAEWKDIDLDGGEWRYTVTKTNTPHIVPLSTQAVEILKELQALTGRSRFVFPGARTNGRPMSDNAILAALRRMGIDKEEMSGHGFRAMARTILDEVLGVRPDFIEHQLAHSVRDPLEHHHHHH", "values": [{"measurement": "soluble on expression in E. coli", "value": "not soluble"}]}
{"sequence": "MTNQPTEIAIVGGGMVGGALALGLAQHGFSVTVIEHAEPAPFVADSQPDVRISAISAASVSLLKGLGVWDAVQAMRCHPYRRLETWEWETAHVVFDAAELKLPLLGYMVENTVLQQALWQALEAHPKVTLRVPTSLIALHRDNDLQELELKGGETIRAKLVIGADGANSQVRQMAGIGVHAWQYAQSCMLISVQCENDPGDSTWQQFTPDGPRAFLPLFDNWASLVWYDSPTRIRQLQNMNMAQLQAEIAKHFPSRLGYVTPLAAGAFPLTRRHALQYVQPGLALVGDAAHTIHPLAGQGVNLGYRDVDALIDVLVNARSYGEAWASYPVLKRYQMRRMADNFIMQSGMDLFYAGFSNNLPPLRFVRNLGLMAAERAGVLKRQALKYALGLLEHHHHHH", "values": [{"measurement": "soluble on expression in E. coli", "value": "not soluble"}]}
{"sequence": "DEAMVKIEKQEIVEHLSENSLLVQLKYAGASTDEPLLNELYKHYQVMANILYGNIEILDGTPVGELVVVLSGEKAALAGAQEAIRQAGVQLKVLKGVQ", "values": [{"measurement": "soluble on expression in E. coli", "value": "not soluble"}]}
{"sequence": "MPDRLQLLEERLVVNKDRFKAGSVQIGKRIETRQETVSVPLQREEVVIERHAVTDGRAVEGAVLGEGHQTMSVDLEAERANISKQAYVTEEVSVGKRAVTETQQVTETVGREVLDVNQTGDVRLEHHHHHH", "values": [{"measurement": "soluble on expression in E. coli", "value": "not soluble"}]}
{"sequence": "MSLIPKIKDISVIECQPAGVRLTVVKITTDQDGLYGYGCATFTQRADLVKPAVERYLKPFLMGKTTDRIEDIWQSCYDSSYWKNGPVLNNAISGIDQALWDIKGRQAGLPVYQLAGGKCREAADCYAHADGADFPNVVEAAKRYMAQGFRHVRVQIGVPGMAGYGSSRGDTKVQALHSKPVFEPAYYVRRALKLFEVCRTELGEEIELLHDMHERVSPNQAVQFVKDAEKFKMFFMEDPLSPEDIAYFRQIRQQCATPIAMGELFNSPHEWTPLISERLIDYIRVHVSQAGGFTPARKIAILGETFGVKTAWHGPGDVSPIGHMANVTLDLVSYNFGIQEYSPFNGRTQEIFSGCPVMKDGYLYASEKPGWGIEVDEKLAAKAPFTDREGHHHHHH", "values": [{"measurement": "soluble on expression in E. coli", "value": "not soluble"}]}
{"sequence": "MKKQSCSHTTEDVPFPQANRRKFLQLAALGSSIGLFSVVSGISEARAEKKAGTLLLSCMDYRLMDEIERYMLRRGLYHNYDHIVLAGASLGAVTDKYPAWSRTFWDHLDLAVNLHEIHTVMVMDHRDCGAYKILLGEDYSKDTDRETAEHTIKLTQLKDMINKKYPKIEVETLLMGLNGEVEAIPTAVAKQG", "values": [{"measurement": "soluble on expression in E. coli", "value": "not soluble"}]}
{"sequence": "METMCEVKVITGTSAAAEAAKLADVDVIAAYPITPQTTCVEKLAEFVANGELDAEYIKVESEHSAMSACIGAAATGARTFTATASQGLALMHEMLFIASGMRLPIVMMVANRALSAPINIWNDHQDSIAERDSGWIQIYVEDNQETLDSIIQAYKIAENEDVLLPVMVCLDGFILTHTVEPVTIPKAERVREFLGVYEPKHAYLDPDRPITQGPVGVPDCYMETRKQIEEAMERAKKVIRDVNEEFAEWFKRKY", "values": [{"measurement": "soluble on expression in E. coli", "value": "not soluble"}]}
{"sequence": "GPGSMHASVVLNMCTASQYTRRTLQSLFERREVDLSALVHVLADNAGYLAATQQGCISLMRVFELCDAAQKAELVRELLPKLAALSMDAFANYMVQCAIEHSDRATAAQYVVAHFTGNILQMSCNKHSSNVLEVVLRCCGEVPAVRRLFLDELVFNPAALKEVVGDLYGNFVVQALIGVVTNPMEFKRVEDRLRPALVGCQFAAKIEGKIKAKRPVPPHAGGAVHHHSYPQSRQQRPLSVPCTMPDHVGPCAPSVRATIALPQAPVMSLGEARVPTQGYCHRPYDCNPLCCAPLAAEQQQPQNVVQAPSGHVYPVDHFQFPILKERTAARAAGAVPVTDGEDSGPVYGPSPAARRHLQQQQQQAFRPPFNIMC", "values": [{"measurement": "soluble on expression in E. coli", "value": "not soluble"}]}
{"sequence": "MVALPTINQLVRKGREKVRKKSKVPALKGAPFRRGVCTVVRTVTPKKPNSALRKVAKVRLTSGYEVTAYIPGEGHNLQEHSVVLIRGGRVKDLPGVRYHIVRGVYDAAGVKDRKKSRSKYGTKKPKEAAKTAAKK", "values": [{"measurement": "soluble on expression in E. coli", "value": "soluble"}]}
{"sequence": "MTTKKADYIWFNGEMVRWEDAKVHVMSHALHYGTSVFEGIRCYDSHKGPVVFRHREHMQRLHDSAKIYRFPVSQSIDELMEACRDVIRKNNLTSAYIRPLIFVGDVGMGVNPPAGYSTDVIIAAFPWGAYLGAEALEQGIDAMVSSWNRAAPNTIPTAAKAGGNYLSSLLVGSEARRHGYQEGIALDVNGYISEGAGENLFEVKDGVLFTPPFTSSALPGITRDAIIKLAKELGIEVREQVLSRESLYLADEVFMSGTAAEITPVRSVDGIQVGEGRCGPVTKRIQQAFFGLFTGETEDKWGWLDQVNQ", "values": [{"measurement": "soluble on expression in E. coli", "value": "soluble"}]}
{"sequence": "MSLNLRESFISKFAASFVKPRFEIWFAAVLIPENDQAFWVRYSTLNPRNNRDLFPMGTLWVSLFDRKNPKNHRTTTQSFPYEEVLIKEHAIEFPEASVGPDHMSGKIQTSMSEDLAWDLEFRHKLEPTGHLPRWLEKTPINHIWGTNRVSELFWTFVPKFDDDPDDWSMEIVTVRPQPFTPTLTFVTLLKRGIPIHQHSIFRSLRSSTKIEYPKLHFKTRLDDYEISVESEMDKDQIAGYIYRDPDGSPRYIEQSDIGNVKCVIRHRRKETVLNAKQAAGVEFHGLRPWRKDHEYLDPYQTEGHHHHHH", "values": [{"measurement": "soluble on expression in E. coli", "value": "not soluble"}]}
{"sequence": "MGSDKIHHHHHHMILDTLENLAHYTHLGPRIAKALQHLKETDFTQLPVGNYELEGKDIFVIVNDYETKPREVEPFEVHRKYIDVQYVVSGEEEFGYLPLADQTPSKPYYDKHDYAEFDYESNKARAAFIPFKAGMFALFFPQDMHMPGVSATPQKVRKVVIKVKI", "values": [{"measurement": "soluble on expression in E. coli", "value": "not soluble"}]}
{"sequence": "MGSDKIHHHHHHMNTAAIYRQYQTYVRSDKSGWALDGCSDSALIAQAKQPGLHLKMCINRFDSGITLSRMRGGGTGAFPTEIHNFSHNCALFVMVSGQNRLQMGGREYRPSAGEIWLVRGELADVSETLLPDSGGMCALHLDFSLEKLRRWHDEGLLDERLFSPQTIGRFALQRLAQNAGTLTAAACPLLQRPFESDGFGLLADEADALELSARLLRFTFRRHDNGYRRRRIDEAADILNSEFARPLTIAEIARRVGLNECYLKRYFKAQTGETVAGRLRRLRLEHALALIESGSTIQAAMHFCGYRHAGRFNEAFRRHYGFLPSDVKKC", "values": [{"measurement": "soluble on expression in E. coli", "value": "not soluble"}]}
{"sequence": "SNAMNQTLLSDFGTPVERVERAIDALRNGRGVMVLDDESRENEGDMVFAAEAMTLEQMALTIRHGSGIVCLCITDERRQQLDLPMMVTHNSSQFQTAFTVTIEAAEGVTTGVSAADRLTTIRKAIADNAKPADLNRPGHVFPLRGQPGGVLSRRGHTEASIDLATLAGYKPAGVLCELTNDDGSMAHAPEVIAFAKLHDMPVVTIDDLAAYLQSRAKKAS", "values": [{"measurement": "soluble on expression in E. coli", "value": "soluble"}]}
{"sequence": "MSLTKAQDHDAAVLYGYFRSSASYRVRIALNLKNIIVAQRYVHLRNGEQNLEAFRWINPAGMVPYWSEGEFNLGQSLAIIEYLDETHPEPPLLPKDPKARAIVREIAYAVACDIHPIGNLRILKRLTELGVDEVDRARWSKEWVEQGFAAIEARLAQTPGPFAYGDRPTLADICIVPQIFNARRFDADLAPFERIRQIEAEAMKLDAFVAAEPGRQPDAEGHHHHHH", "values": [{"measurement": "soluble on expression in E. coli", "value": "soluble"}]}
{"sequence": "MKIGIIGAGFVARAIAKLALQNGHQVMLSNSRDPQSLFSLRPMIGCDIGTATQAALFGDIIVIAVPFTAIDKLPEQALQGKSVIDAVNYYTERDGKVAALDTRSTTTSELLAGYLPGAKITKAFNAITMTQLERDGLPAGSAHRRALPLAGDHEQEKTIVAELYDAFGFDVVDAGKLSEGWRFERNMPSYCVRMTKAELTTALALSSRLEHHHHHH", "values": [{"measurement": "soluble on expression in E. coli", "value": "soluble"}]}
{"sequence": "MSLYRELMQKKNVRPYVLMARFGLEKENQRSTREGLLATTEHPTVFGNRSYHPYIQTDFSETQLELITPVANSGTEMLRFLDAIHDVARRSIPEDEMLWPLSMPPQLPTKDEEIKIAKLDQYDAVLYRRYLAKEYGKRKQMVSGIHFNFEYDQALIQQLYDEQSEVTDCKQFKTKVYMKVARNFLRYRWLITYLFGASPVSEDRYFRVYDDQPQEPVRSIRNSTYGYRNHDNVKVSYASLERYLEDIHRMVENGLLSEEKEFYAPVRLRGGKQMSDLPKTGIRYIELRNLDLNPFSRLGIVEDTVDFLHYFMLYLLWTDEKEEADEWVKTGDIFNEQVALGHPHETIKLIAEGDRIFSEMIDMLDALGIRKGKEVVGKYYQQLRNPQDTVSGKMWTIIQENSNSELGNIFGNQYQSMAFERPYQLAGFREMELSTQIFLFDAIQKGLEIEILDEQEQFLKLQHGEHIEYVKNANMTSKDNYVVPLIMENKTVTKKILSAAGFHVPGGEEFSSFIEAQEAHLRYANKAFVVKPKSTNYGLGITIFKEGASLEDFTEALRIAFKEDTAVLIEEFLPGTEYRFFVLDNDVKAIMLRVPANVTGDGKHTVEELVAAKNSDPLRGTNHRAPLELIQLNDLEKLMLKEQGLTIYSVPEKEQIVYLRENSNVSTGGDSIDMTDVIDDSYKQIAIEAVAALGAKICGIDLIIPDKDVKGTRDSLTYGIIEANFNPAMHMHVYPYAGQGRRLTMDVLKLLYPEVVQEGGSHHHHHH", "values": [{"measurement": "soluble on expression in E. coli", "value": "soluble"}]}
